Reference: publication PMC11630572, “Discovery of Nanosota-9 as anti-Omicron nanobody therapeutic candidate” (PLOS Pathogens, 2024)

Key:
Assay in all cases: SPR; Biacore S200; spike ectodomain immobilized on CM5 chip by chemical crosslinking; Nanosota-9-His injected at 8, 16, 32, 64, 128 nM; running buffer 10 mM HEPES, 150 mM NaCl, 0.05% Tween 20
Details in all cases: both partners purified
[1] = biological target: T1, recombinant spike ectodomain of SARS-CoV-2 Omicron subvariant XBB.1.5 (SARS-CoV-2 Omicron XBB.1.5, strain)
T1 construct: The same GISAID id is printed for XBB.1.5 and JN.1; also called XBB.1.5 spike ectodomain; XBB.1.5 spike; not shown: His tag, C-terminal, kept

[2] = biological target: T2, recombinant spike ectodomain of SARS-CoV-2 Omicron subvariant BA.5 (SARS-CoV-2 Omicron BA.5, strain)
T2 construct: also called BA.5 spike ectodomain; BA.5 spike; not shown: His tag, C-terminal, kept

[3] = biological target: T3, recombinant spike ectodomain of SARS-CoV-2 Omicron subvariant JN.1 (SARS-CoV-2 Omicron JN.1, strain)
T3 construct: The same GISAID id is printed for XBB.1.5 and JN.1; also called JN.1 spike ectodomain; JN.1 spike; not shown: His tag, C-terminal, kept

B1: His-tagged Nanosota-9 (Nanosota-9-His) (VHH)
VHH: QVQLQESGGGLVQPGGSLRLSCTASGIALHTHATGWFRQAPGKEREGVSCISSGDGTTYYEDSVEGRFTISRDNAKNTVYLQMNSLKLEDTAVYYCAADPGAVCHSGSYYYTDDDFYYRGQGTQVTVSS
notes: Nanosota-9 nanobody from an alpaca immunized with the BA.5 spike ectodomain; also called monomeric Nanosota-9; not shown: His tag, C-terminal, kept
- Kd [1]: 0.06 nM
- Kd [2]: 0.078 nM
- Kd [3]: 29.4 nM
